Assay results taken from article PMC5455435, “Fibrin Hydrogel Based Bone Substitute Tethered with BMP-2 and BMP-2/7 Heterodimers” (Materials, 2015).

Key:
[1] = molecular target: the molecule itself; assay: SEC; purified monomers refolded at 4 °C in 50 mM Tris pH 8.5, 1 M NaCl, 5 mM EDTA, 2% CHAPS, 2 mM reduced and 1 mM oxidized glutathione; after reverse phase chromatography the dimer was isolated on a HiLoad Superdex 75 column
[2] = molecular target: T1, BMP-7 (human, UniProt P18075 293-431); assay: non-reduced Western blot with two-colour infrared detection; TG-BMP-2 and BMP-7 monomers combined in equimolar amounts and refolded together, heterodimer purified by heparin affinity, size exclusion and reverse phase chromatography; non-reduced blot probed with anti-BMP-2/4 (700 nm) and anti-BMP-7 (800 nm); overlapping bands indicate the heterodimer; settings: both partners purified
T1 construct: Non-glycosylated (made in E. coli); also called BMP-7 monomer; BMP-7 chain of TG-BMP-2/BMP-7
T1 sequence (looked up): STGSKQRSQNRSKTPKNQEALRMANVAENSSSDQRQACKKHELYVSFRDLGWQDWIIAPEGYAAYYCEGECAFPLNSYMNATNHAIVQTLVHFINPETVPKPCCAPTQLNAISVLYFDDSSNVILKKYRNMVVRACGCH

B1: BMP-2 (ligand, human, UniProt P12643 283-396, looked up)
chain: QAKHKQRKRLKSSCKRHPLYVDFSDVGWNDWIVAPPGYHAFYCHGECPFPLADHLNSTNHAIVQTLVNSVNSKIPKACCVPTELSAISMLYLDENEKVVLKNYQDMVVEGCGCR
notes: bone morphogenetic protein 2 (BMP-2), human, active BMP-2 protein only; also called BMP-2 homodimer; regular BMP-2 without the TG site
binding result [1]: binds

B2: TG-BMP-2 (ligand, human)
chain: MNQEQVSPLPVELPLIKMKPHQAKHKQRKRLKSSCKRHPLYVDFSDVGWNDWIVAPPGYHAFYCHGECPFPLADHLNSTNHAIVQTLVNSVNSKIPKACCVPTELSAISMLYLDENEKVVLKNYQDMVVEGCGCR
notes: One chain is written; also called engineered BMP-2; TG-BMP-2 monomer
binding result [1]: binds
binding result [2]: binds
